Results from publication doi:10.1101/2022.07.01.498528 (bioRxiv, 2022).

Key:
[1] = biological target: CMY-61 β-lactamase (Escherichia coli entry (host isolate …, UniProt G3F7G9, strain)); assay: ELISA
[2] = biological target: CMY-60 β-lactamase (Escherichia coli entry (host isolate …, UniProt G3F7G8, strain)); assay: ELISA
[3] = biological target: CMY-58 β-lactamase (Escherichia coli entry (host isolate …, UniProt F1C3E3, strain)); assay: ELISA
[4] = biological target: CMY-16 β-lactamase (Proteus mirabilis entry (host isolate …, UniProt Q4LCT4, strain)); assay: ELISA
[5] = biological target: CMY-42 β-lactamase (Escherichia coli entry (host isolate …, UniProt F4YXC2, strain)); assay: ELISA
[6] = biological target: TEM-1 β-lactamase (class A) (Escherichia coli (assumed), TEM-1, UniProt P62593); assay: BLI
TEM-1 β-lactamase (class A), sequence (P62593 24-286): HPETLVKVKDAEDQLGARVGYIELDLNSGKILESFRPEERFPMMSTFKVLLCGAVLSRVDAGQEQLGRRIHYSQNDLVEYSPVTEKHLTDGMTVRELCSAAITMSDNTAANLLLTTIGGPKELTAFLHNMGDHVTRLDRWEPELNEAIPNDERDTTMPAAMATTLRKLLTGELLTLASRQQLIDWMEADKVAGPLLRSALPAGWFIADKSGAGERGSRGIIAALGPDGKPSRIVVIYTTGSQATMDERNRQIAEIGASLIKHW

[7] = biological target: CMY-1 β-lactamase (class C) (Klebsiella pneumoniae, CMY-1, UniProt P71420, strain); assay: BLI
[8] = biological target: VIM-4 β-lactamase (class B) (Pseudomonas aeruginosa, VIM-4, UniProt Q8KRJ3, strain); assay: BLI
[9] = biological target: AmpC P99 of Enterobacter cloacae (class C β-lactamase) (Enterobacter cloacae P99, UniProt P05364); assay: BLI
AmpC P99 of Enterobacter cloacae (class C β-lactamase), sequence (P05364 21-381): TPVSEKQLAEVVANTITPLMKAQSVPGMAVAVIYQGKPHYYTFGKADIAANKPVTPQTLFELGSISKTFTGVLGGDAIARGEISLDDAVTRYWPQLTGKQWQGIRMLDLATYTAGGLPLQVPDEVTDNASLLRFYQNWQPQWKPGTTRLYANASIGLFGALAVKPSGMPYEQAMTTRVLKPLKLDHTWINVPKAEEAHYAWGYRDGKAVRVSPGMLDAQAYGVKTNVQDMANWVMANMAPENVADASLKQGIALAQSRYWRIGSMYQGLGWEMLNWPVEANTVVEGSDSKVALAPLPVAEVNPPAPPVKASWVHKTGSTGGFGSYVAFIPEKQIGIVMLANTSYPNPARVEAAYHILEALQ

[10] = biological target: OXA-48 β-lactamase (class D) (Klebsiella pneumoniae, OXA-48, UniProt Q6XEC0); assay: BLI
OXA-48 β-lactamase (class D), sequence (Q6XEC0 23-265): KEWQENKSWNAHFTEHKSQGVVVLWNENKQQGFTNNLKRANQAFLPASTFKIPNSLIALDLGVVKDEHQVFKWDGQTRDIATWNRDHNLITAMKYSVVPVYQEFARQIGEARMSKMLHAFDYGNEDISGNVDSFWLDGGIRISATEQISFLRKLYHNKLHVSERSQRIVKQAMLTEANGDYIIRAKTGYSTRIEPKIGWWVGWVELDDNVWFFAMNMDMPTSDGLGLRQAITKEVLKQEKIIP

Row | Binder | binding result [1] | binding result [2] | binding result [3] | binding result [4] | binding result [5] | binding result [6] | binding result [7] | binding result [8] | binding result [9] | binding result [10]
1 | VHH cAb_(CMY-2)(254) (VHH) VHH: QVQLVESGGGMVQPGGSLRLSCAASGFTFSNYDMSWVRRAPGKGPEWVSTINTGGGSTSYADSVKGRFTISRDNAKNTLYLQMNSLKPEDTALYYCTIDRGLHYSDLGEYDYWGQGTQVTVSS | binds | binds | binds | binds | binds | no binding (tested: 500 nM) | no binding (tested: 500 nM) | no binding (tested: 500 nM) | no binding (tested: 500 nM) | no binding (tested: 500 nM)
2 | VHH cAb_(CMY-2)(250) (VHH) VHH: QVQLVESGGGLVQPGGSLRLSCAASGSIFSIYGMGWYRQAPGKQRELVAEITSGGSTNYADSVKGRFTISRDNAKNTVYLQMNSLNPEDTAVYYCNADGTMWGAGDYWGQGTQVTVSS | – | – | – | – | – | no binding (tested: 500 nM) | – | no binding (tested: 500 nM) | binds | no binding (tested: 500 nM)
3 | VHH cAb_(CMY-2)(272) (VHH) VHH: QVQLVESGGGLVQPGGSLRLSCAASGSIFMIYAMGWYRQAPGKQRELVADITSGGSTDYTDSVKGRFTISRDKNTVYLQMNSLKPEDTAVYYCNADHGPGFGYDYWGQGTQVTVSS | – | – | – | – | – | no binding (tested: 500 nM) | no binding (tested: 500 nM) | no binding (tested: 500 nM) | no binding (tested: 500 nM) | no binding (tested: 500 nM)
